Test results reported in the nanobody polyreactivity screen of Harvey et al. (2022).

Assay: yeast display, Sf9 membrane polyspecificity reagent, FACS + sequencing; frameworks hold sequencing errors
Method in brief: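 Synthetic nanobody libraries on Saccharomyces cerevisiae BJ5465 were galactose-induced for 36–48 hours, stained 1 hour at 4 °C with 10% biotinylated, detergent-solubilized Sf9 membrane reagent and enriched on streptavidin microbeads. FACS then separated cells into low and high (top ~1%) gates by anti-HA (expression) and streptavidin (reagent binding) fluorescence. Genes were colony-PCR amplified, MiSeq 2 × 250 sequenced and CDR-length filtered. A clone's polyreactivity label is that of its gate of origin.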

Row | Sequence | polyreactivity (PSR sort gate)
1 | QVQLVESGGGLVQAGGSLRLSCAASGSTFRRYAMGWYRQAPGKERELVAAISSSGDSTYYADSVKGRFTISRDNAKNTVYLQMNSLKPEDTAVYYCATRLRQVYRSQSSGYDYWGQGTQVTVSS | low polyreactivity
2 | QVQLVESGGGLVQAGGSLRLSCAASGSTFRSYAMGWNRQAPGKERELVAAISGRGGNTYYADSVKGRFTISRDNAKNTVYLLMNSLKPEDTAVYYCARKTVYYGSDYWGQGTQVTVSS | high polyreactivity
3 | QVQLVESGGGLVQAGGSLRLSCAASGSTFRSYAMGWYIQAPGKERELVARISYRTGSTYYADSVKGRFTISRDNAKNTVYLQMNSLKPEDTAVYYCATRGSYVGGLYDYWGQGTQVTVSS | high polyreactivity
4 | QVQLVESGGGLVQAGGSLRLSCAASGSTFRSYAMGWYRQAPGKERELVARISYRTGSTYYADSVKGRFTISRDNAKNTVYLQMNSLKPEDTAVYYCATRGSYVGGLYDYWGQGTQVTVSS | high polyreactivity
5 | QVQLVESGGGLVQAGGSLRLSCAASGSTFRTNAMGWYRQAPGKERELVADISKRGGNTYYADSVKGRFTISRDNAKNTVYLQMNCLKPEDTALYDCAAYRVYGYGGGYDYYYWVQGTQVTVSS | high polyreactivity
6 | QVQLVESGGGLVQAGGSLRLSCAASGSTFRVYAMGWYRQATVKERELVAAISGSGGSTYYADSVKGRFTISRYNAKNSVYLQMNSLKPEDTAVYYCAARSWYTEYYWGQGTQVSVSS | high polyreactivity
7 | QVQLVESGGGLVQAGGSLRLSCAASGSTFRVYVMGWYRQAPGKERELVAAISQRGGSTYYADSVKGRFTISRDNAKNTVYLQMNSLKPEDTAVYYCAADQPGARTWSNRESDYWGQGTQVTVSS | high polyreactivity
8 | QVQLVESGGGLVQAGGSLRLSCAASGSTFRWNAMGWYRQAPGKERELVAAISWSGGTTYYADSVKGRFTISRDNAKNTVYLQMNSLKPEDTAVYYCAARTLWQGYWGQGTQVTVSS | high polyreactivity
9 | QVQLVESGGGLVQAGGSLRLSCAASGSTFRWNAMGWYRQAPGKERELVAAITWSGGSTYYADSVKGRFTISRDNAKNTVYLQMNSLKPEDTAVYYCNAGGLFQYDSWGQGTQVTVSS | low polyreactivity
10 | QVQLVESGGGLVQAGGSLRLSCAASGSTFRWNAMGWYRQAPGKERELVATITWGGGSTYYADSVKGRFTISRDNAKNTVYLQMNSLKPEDTAVYYCARRKRARYSYYQYNYWGQGTQVTVSS | high polyreactivity
11 | QVQLVESGGGLVQAGGSLRLSCAASGSTFRYNAMGWYIQAPGKERELVAAITSTGDSTYYADSVKGRFTISRDNAKNTVYLQMNSLKPEYTAVYYCAARSYASPGWRYEYWGQGTQVTVSS | low polyreactivity
12 | QVQLVESGGGLVQAGGSLRLSCAASGSTFRYNAMGWYRQAPGKERELVAAITSTGDSTYYADSVKGRFTISRDNAKNTVYLQMNSLKPEVTAVYYCAARSYASPGWRYEFWGQGTQVTVSS | low polyreactivity
13 | QVQLVESGGGLVQAGGSLRLSCAASGSTFRYNAMGWYRQAPGKERELVASISGSGGGTYYADSVKGRFTISRDNAKNTVYLQMNSLKPEDTAVYYCAADAGAFYFGGDYWGQGTQVTVSS | low polyreactivity
14 | QVQLVESGGGLVQAGGSLRLSCAASGSTFRYNTMGWYRQAPGKERELVAAISTSGGTTYYADSVKGRFTISRDNAKNTVYLQMNSLKPEDTAVYYCAARPFPRRWYGAEDYYWGQGTQVTVSS | high polyreactivity
15 | QVQLVESGGGLVQAGGSLRLSCAASGSTFRYYAMGRYRQAPGKERELVAVISTSGNTYYADSVKGRFTISRDNAKNTVYLQMNSLKPEDTAGYYCAAGGVGGQISQEYDYWGQGTQVTVSS | low polyreactivity
16 | QVQLVESGGGLVQAGGSLRLSCAASGSTFRYYAMGWYREAPGKEREFVAAISLRAGSTYYADSVKGRFTISRDNAKNTVYLQMNSLKPEDTAVYYCAARRASYGTRRYDYWGQGTQVTVSS | high polyreactivity
17 | QVQLVESGGGLVQAGGSLRLSCAASGSTFRYYAMGWYRQAPGKERELVAAINYGGGRTYYADSVKGRFTISRDNAKNTVYLQMNSLKPEDTAVYYCATGYYYYRFYTYGYWGQGTQVTVSS | high polyreactivity
18 | QVQLVESGGGLVQAGGSLRLSCAASGSTFRYYAMGWYRQAPGKERELVAAISTGGTTYYADSVKGRFTISRENAKNTVYLQMNSLKPEDTAVYYCNTVRLFDYGYWGQGTQVTVSS | low polyreactivity
19 | QVQLVESGGGLVQAGGSLRLSCAASGSTFRYYAMGWYRQAPGKERELVAAITRSGGSTSYADSVKGRFTISRDNAKNTVYLQMNSLKPEDTAVYYCAARFYRPYYARQGYNYWGQGTQVTVSS | high polyreactivity
20 | QVQLVESGGGLVQAGGSLRLSCAASGSTFRYYAMGWYRQAPGKERELVAGISSSGGSTYYADSVKGRFTISRDNAKNTVYLQMNSLNPEDTAVYYCIAARGTSRSWAVFADYDYWGQGTQVTVSS | high polyreactivity
21 | QVQLVESGGGLVQAGGSLRLSCAASGSTFRYYAMGWYRQAPGKERELVASISSGGSTNYADSVKGRFTISRDNAKNTVYLQMNSLKPGDTAVYYCNADSWTVNRRYYYYRYEYWGQGTQVTVSS | low polyreactivity
22 | QVQLVESGGGLVQAGGSLRLSCAASGSTFRYYAMGWYRQAPGKERELVATITGSGGSTYYADSVKGRFTISRDNAKNTVYLQMNSLKPEDTAVYYCAAYYSGGYDYWGQGTQVTVSS | high polyreactivity

Row | Sequence | polyreactivity (PSR sort gate)
23 | QVQLVESGGGLVQAGGSLRLSCAASGSTFRYYGMGWYRQAPGKERELVAAITWSSGSTFYADSVKGRFTISRDNAKNTVYLQMNSLKPEDTAVYYCAKTWWTRLKTKSLHFGYWGQGTQVTVSS | high polyreactivity
24 | QVQLVESGGGLVQAGGSLRLSCAASGSTFRYYTMGWYRQAPGKERELVAAITRRSASTYYADSVKGRFTISRDNAKNTVYLQMNSLKPEDTAVYYCAVRTNGPFEYWGQGTQVTVSS | high polyreactivity
25 | QVQLVESGGGLVQAGGSLRLSCAASGSTFRYYTMGWYRQAPGKERELVAAITWSGGSTYYADSVKGRFTISRDNAKNTVNLQMNSLKPEDTEVYYCNKEDVGSSESDYWGQGTQVTVSS | high polyreactivity
26 | QVQLVESGGGLVQAGGSLRLSCAASGSTFRYYTMGWYRQAPGKERELVAAITWSGGSTYYADSVKGRFTISRDNAKNTVYLQMNSLKPEDTAVYYCNARSLQWTPRAYYYWGQGTQVTVSS | high polyreactivity
27 | QVQLVESGGGLVQAGGSLRLSCAASGSTFRYYTMGWYRQAPGKERELVARISWSGGSTYYADSVKGRFTISRDNAKNTVYLQMNSLKPEDTAVYYCNAVLFYFQTRDYWGQGTQVTVSS | high polyreactivity
28 | QVQLVESGGGLVQAGGSLRLSCAASGSTFSANAMGWYRQAPGKERELLAAISSGDITYYADSVKGRFTISRDNAKNTVYLQMNSLKPEDTAVYYCAKYTRPTGNVDDGFEYWGQGTQVTVSS | low polyreactivity
29 | QVQLVESGGGLVQAGGSLRLSCAASGSTFSANAMGWYRQAPGKERELVAAISRRGGSTNYADSVKGRFTISRDNAKNTVYLQMNSLKPEDTAVYYCAALYVPRSPFSYDYWGQGTQVTVSS | high polyreactivity
30 | QVQLVESGGGLVQAGGSLRLSCAASGSTFSANAMGWYRQAPGKERELVAAITYRGGNTYYADSVKGRFTISRDNAKNTVYLQMNSLKPEDTAVYYCNRDLRVRYRRLKYGYWGQGTQVTVSS | low polyreactivity
31 | QVQLVESGGGLVQAGGSLRLSCAASGSTFSANAMGWYRQAPGKERELVAGISRSGGRTYYADSVKGRFTISRDNEMNTVYLQMNSLKPEDTAVYYCNARRRGAGGYDYWGQGTQVTVSS | high polyreactivity
32 | QVQLVESGGGLVQAGGSLRLSCAASGSTFSAYAMGWYRQAPGKERELVATITSDGSTNYADSVKGRFTISRDNAKNTVYLQMNSLKPEDTAVYYCAAKRQYKRSRMYYWGQGTQVTVSS | high polyreactivity
33 | QVQLVESGGGLVQAGGSLRLSCAASGSTFSDNAMGWYRQAPGKERELVATINASGGSTYYADSVKGRFTITRDNAKNTVYLQMNSLKPEDTAVYYCAADVYTRFWRVYRFDYWGQGTQVTVSS | low polyreactivity
34 | QVQLVESGGGLVQAGGSLRLSCAASGSTFSDNDMGWYRQAPGKERELVATIDDDGSTYYADSVKGRFTISRDNAKNTVYLQMNSLKPEDTAVYYCAAEWYGGYPFGYWGQGTQVTVSS | low polyreactivity
35 | QVQLVESGGGLVQAGGSLRLSCAASGSTFSDYVMGWYRQAPGKEREFVDAISWTGGITYYADSVKGRFTISRDNAKNTVYLQMNSLKPEDTAVYYSAAKRKYYGNGYWGQGTQVTVSS | high polyreactivity
36 | QVQLVESGGGLVQAGGSLRLSCAASGSTFSEKAMGWYRQAPGKERELVAAISRRGGSTYYADSVKGRFTISRDNAKNTVYYQMNSLKPEDTAVYYCNVVNSGSFDYDYWGQGTPVTVSS | high polyreactivity
37 | QVQLVESGGGLVQAGGSLRLSCAASGSTFSEYVMGWYRQAPGKQRELVAAIRSNGGSTYYADSVKGRFTISRDNAKNTVYLQMNSLKPEDTAVYYCNRVYSRRTYNSPLYDYWGQGTQVTVSS | high polyreactivity
38 | QVQLVESGGGLVQAGGSLRLSCAASGSTFSFNDMGGYRPAPGKERELVADISWSGDTTYADSVKGRFTISRDNAKNTVYLQMNSLIPEDSAVYYCNAEGFSISFYGNWVVQWEFDYWGQGTQVTVSS | high polyreactivity
39 | QVQLVESGGGLVQAGGSLRLSCAASGSTFSGNAMGWYRQAPGKEREMVAAITSSRGSTYYADSVKGRFTISRDHAQNTVDLQLNSLKPEDTAVYYCNRYSGGRWYPEYYYWGQGTQVTVSS | high polyreactivity
40 | QVQLVESGGGLVQAGGSLRLSCAASGSTFSGNTMGWYRQAPGKERELVADINWSSGSTYYADSVKGRFTISRDNAKNTVYLQMNSLKPEDTAVYYCAAVEPFYDFDYWGQGTQVTVSS | low polyreactivity
41 | QVQLVESGGGLVQAGGSLRLSCAASGSTFSGYAMGWYRQAPGKEMEFVATISISGGSTYYADSVKGRFTISRDNAKNTVYLQMNSLKPEDTAVYYCNADYYFSWGSIEDYWGQGTQVTVSS | low polyreactivity
42 | QVQLVESGGGLVQAGGSLRLSCAASGSTFSGYAMGWYRQAPGKERELVAAISRRGTSTYYADSVKGRFTISRDNAKNTVYLQMNSLKPEDTAVYYCAARPSGYVIGGYGYWGQGTQVTVSS | high polyreactivity
43 | QVQLVESGGGLVQAGGSLRLSCAASGSTFSGYAMGWYRQAPGKERELVAAITRSGGSTYYADSVKGRFTISRDNAKNTVYLQMNSLKPEDTAVYYCNVYFGYWVPTSTYYWSWDDYWGQGTQVTVSS | low polyreactivity
